Biological target: Atto488-labeled GRB2-SH2 domain (UniProt P62993)
Experiment: MST

Atto488-labeled GRB2-SH2 domain, sequence (P62993 60-152): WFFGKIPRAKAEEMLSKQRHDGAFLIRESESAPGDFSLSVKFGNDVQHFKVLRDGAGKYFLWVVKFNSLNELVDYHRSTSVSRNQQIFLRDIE

Kd: 2800 nM
Substance: Dual-phosphorylated H2AX (pH2AX) peptide
